Data as given in patent US20200010563A1 (PROTHENA BIOSCIENCES, published 2020).

Columns and labels:
[1] = molecular target: T1, human MCAM domain 3 (amino acids 244-321) hFc construct (human, UniProt P43121 244-321); assay: ForteBio BLI, MCAMhFc domains on anti-human IgG Fc sensors, antibody 5 ug/ml
T1 construct: One of the 'various MCAMhFc domains' immobilised on anti-human IgG Fc biosensors; also called MCAMhFc domain 3; not shown: human IgG Fc (hFc)
T1 sequence: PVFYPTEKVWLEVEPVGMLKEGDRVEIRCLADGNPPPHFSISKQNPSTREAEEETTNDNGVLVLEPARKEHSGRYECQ
Text: The following protocol was used: ForteBio anti-human IgG Fc biosensors were used to immobilize various MCAMhFc domains including full length MCAMhFc protein on to biosensor surface. […] After loading these samples into a black 96 well plate, the Octet Red was programmed as follows: 60 seconds for baseline #1; 180 seconds for loading various domains; 60 seconds for baseline #2; 180 seconds for association of antibody to domain; and 240 seconds for dissociation of antibody from domain.
1. MCAMhFc final concentration @ 5 ug/ml [0342] […] 3. ForteBio anti-human IgG Fc Capture (AHC) biosensors for kinetics experiments, cat#18-5060 [0344] 4. Block 96 well plate from Greiner Bio-one, cat#655209 [0345] 5. ForteBio Octet Red machine [0346] 6. Fresh tissue culture medium, DMEM with 20% FCS, was used as buffer for dilution The results from these analyses are as follows.

[2] = molecular target: T2, human MCAM V340A mutant (V5/HIS6) on BHK cells (human, UniProt P43121 24-646); assay: shotgun mutagenesis library, immunofluorescence on BHK cells, triplicate; standard deviation in brackets
T2 sequence: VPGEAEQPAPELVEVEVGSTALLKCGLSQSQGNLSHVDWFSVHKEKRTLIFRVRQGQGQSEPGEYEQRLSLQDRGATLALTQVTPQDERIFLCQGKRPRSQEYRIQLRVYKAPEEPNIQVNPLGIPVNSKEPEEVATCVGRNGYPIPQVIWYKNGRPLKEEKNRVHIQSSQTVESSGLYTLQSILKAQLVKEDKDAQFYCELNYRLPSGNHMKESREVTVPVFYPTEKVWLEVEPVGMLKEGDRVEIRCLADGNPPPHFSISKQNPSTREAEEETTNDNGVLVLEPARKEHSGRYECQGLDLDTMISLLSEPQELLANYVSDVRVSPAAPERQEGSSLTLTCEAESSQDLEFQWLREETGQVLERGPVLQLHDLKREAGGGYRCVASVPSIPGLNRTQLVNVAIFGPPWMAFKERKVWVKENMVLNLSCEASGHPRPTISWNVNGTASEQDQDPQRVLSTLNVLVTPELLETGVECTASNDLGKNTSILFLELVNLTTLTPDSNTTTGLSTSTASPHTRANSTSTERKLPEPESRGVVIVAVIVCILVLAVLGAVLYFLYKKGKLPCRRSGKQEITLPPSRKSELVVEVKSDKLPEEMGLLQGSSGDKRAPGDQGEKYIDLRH
Description: (§1) The mutation library was assayed for surface expression (mouse sera binding) and monoclonal antibody binding, in triplicate. Each raw data point was background-subtracted and normalized to the wild type MCAM reactivity values. The mean monoclonal antibody binding value for each clone is plotted as a function of its mean surface expression value (FIG. 1, gray diamonds). Thresholds of <30% monoclonal antibody reactivity and >50% mouse sera binding were applied to identify clones (FIG. 1, black diamonds) that were negative for monoclonal antibody binding but positive for surface expression.
(§2) Residues involved in antibody binding were identified as those that were negative for monoclonal antibody binding (<30% WT) but positive for surface expression (>50% WT) (Table 4). The mean reactivity (and standard deviation) were determined for each critical residue.

[3] = molecular target: T3, human MCAM C320A mutant (V5/HIS6) on BHK cells (human, UniProt P43121 24-646); assay: as above
T3 sequence: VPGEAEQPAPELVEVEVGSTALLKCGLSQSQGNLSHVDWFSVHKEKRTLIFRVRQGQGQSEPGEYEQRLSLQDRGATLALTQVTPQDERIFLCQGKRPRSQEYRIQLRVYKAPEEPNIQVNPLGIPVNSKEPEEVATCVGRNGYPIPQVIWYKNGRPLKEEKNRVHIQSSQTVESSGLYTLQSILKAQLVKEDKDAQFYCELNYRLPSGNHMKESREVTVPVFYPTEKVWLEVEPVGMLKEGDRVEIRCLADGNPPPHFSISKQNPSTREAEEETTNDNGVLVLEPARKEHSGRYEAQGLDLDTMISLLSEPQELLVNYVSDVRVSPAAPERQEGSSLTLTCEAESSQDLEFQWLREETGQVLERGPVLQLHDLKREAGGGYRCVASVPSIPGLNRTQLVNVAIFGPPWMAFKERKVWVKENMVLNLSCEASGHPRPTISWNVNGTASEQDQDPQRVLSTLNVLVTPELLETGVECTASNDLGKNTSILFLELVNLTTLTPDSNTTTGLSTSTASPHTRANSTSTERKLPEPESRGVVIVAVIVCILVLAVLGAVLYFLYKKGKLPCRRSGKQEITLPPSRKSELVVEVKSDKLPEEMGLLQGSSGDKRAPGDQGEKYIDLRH
Description: as §1, §2

[4] = molecular target: T4, human MCAM C272A mutant (V5/HIS6) on BHK cells (human, UniProt P43121 24-646); assay: as above
T4 sequence: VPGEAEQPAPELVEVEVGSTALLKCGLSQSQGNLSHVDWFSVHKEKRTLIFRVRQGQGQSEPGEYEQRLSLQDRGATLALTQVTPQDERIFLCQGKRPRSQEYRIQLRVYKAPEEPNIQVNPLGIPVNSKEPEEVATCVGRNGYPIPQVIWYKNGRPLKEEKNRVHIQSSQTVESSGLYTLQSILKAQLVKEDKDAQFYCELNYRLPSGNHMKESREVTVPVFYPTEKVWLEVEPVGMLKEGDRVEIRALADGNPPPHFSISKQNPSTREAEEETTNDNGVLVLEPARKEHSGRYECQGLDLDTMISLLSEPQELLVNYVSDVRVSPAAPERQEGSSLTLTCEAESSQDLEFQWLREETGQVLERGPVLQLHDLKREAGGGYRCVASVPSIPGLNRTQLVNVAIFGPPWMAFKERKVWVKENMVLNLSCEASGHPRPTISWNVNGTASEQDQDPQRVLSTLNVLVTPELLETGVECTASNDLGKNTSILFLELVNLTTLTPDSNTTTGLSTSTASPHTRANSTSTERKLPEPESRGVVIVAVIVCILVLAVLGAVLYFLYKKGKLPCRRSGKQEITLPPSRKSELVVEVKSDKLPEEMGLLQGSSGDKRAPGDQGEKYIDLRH
Description: as §1, §2

[5] = molecular target: T5, human MCAM W377A mutant (V5/HIS6) on BHK cells (human, UniProt P43121 24-646); assay: as above
T5 sequence: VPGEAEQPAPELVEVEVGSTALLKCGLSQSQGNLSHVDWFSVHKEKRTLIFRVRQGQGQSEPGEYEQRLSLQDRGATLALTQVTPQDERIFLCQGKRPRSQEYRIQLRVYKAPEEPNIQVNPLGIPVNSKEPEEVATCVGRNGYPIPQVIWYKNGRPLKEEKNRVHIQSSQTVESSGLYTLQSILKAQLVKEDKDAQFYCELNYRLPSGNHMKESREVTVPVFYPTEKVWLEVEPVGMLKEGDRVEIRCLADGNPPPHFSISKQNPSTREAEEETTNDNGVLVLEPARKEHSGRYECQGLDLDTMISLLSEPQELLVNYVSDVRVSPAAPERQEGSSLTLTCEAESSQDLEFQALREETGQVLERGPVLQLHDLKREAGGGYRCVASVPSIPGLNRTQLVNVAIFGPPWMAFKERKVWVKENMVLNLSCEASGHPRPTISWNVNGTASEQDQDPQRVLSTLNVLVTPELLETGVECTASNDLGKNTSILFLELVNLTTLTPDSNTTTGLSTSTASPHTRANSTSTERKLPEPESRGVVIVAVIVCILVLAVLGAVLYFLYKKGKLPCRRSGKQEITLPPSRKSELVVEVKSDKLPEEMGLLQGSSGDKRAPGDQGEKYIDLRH
Description: as §1, §2

[6] = molecular target: T6, human MCAM Y318A mutant (V5/HIS6) on BHK cells (human, UniProt P43121 24-646); assay: as above
T6 sequence: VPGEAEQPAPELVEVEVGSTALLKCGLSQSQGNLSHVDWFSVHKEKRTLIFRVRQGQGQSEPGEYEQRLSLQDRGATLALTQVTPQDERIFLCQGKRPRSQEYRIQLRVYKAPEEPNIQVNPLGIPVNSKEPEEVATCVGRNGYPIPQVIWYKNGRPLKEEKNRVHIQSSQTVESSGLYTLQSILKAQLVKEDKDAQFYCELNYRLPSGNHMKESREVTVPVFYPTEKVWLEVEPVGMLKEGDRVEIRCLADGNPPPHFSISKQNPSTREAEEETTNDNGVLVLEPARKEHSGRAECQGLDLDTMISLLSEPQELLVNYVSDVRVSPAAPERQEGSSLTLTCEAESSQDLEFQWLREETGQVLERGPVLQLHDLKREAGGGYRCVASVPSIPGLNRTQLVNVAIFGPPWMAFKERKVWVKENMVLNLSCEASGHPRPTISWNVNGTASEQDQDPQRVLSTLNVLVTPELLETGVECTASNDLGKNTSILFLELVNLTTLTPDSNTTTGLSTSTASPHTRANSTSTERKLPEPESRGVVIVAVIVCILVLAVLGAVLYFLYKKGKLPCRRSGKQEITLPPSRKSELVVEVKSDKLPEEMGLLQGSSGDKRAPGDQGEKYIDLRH
Description: as §1, §2

[7] = molecular target: T2, human MCAM V340A mutant (V5/HIS6) on …; assay: shotgun mutagenesis, immunofluorescence on BHK cells
Description: as §1, §2

B1: mouse anti-human MCAM monoclonal antibody clone 1174.1.3 (antibody, V domains shown)
VH: QIQLVQSGPELKKPGETVKISCKASGYTFTNYGMNWVKQAPGKGLKWMGWINTYTGEPTYADDFKGRFALSLETSASTAYLQINNLKNEDMATYFCARYRYNKYERAMDYWGQGTSVTVSS
VL: DIVLTQSPASLAVSLGQRATISCRASKSVSTSGYSYMYWYQQKPGQPPKLLIYLASNLESGVPARFSGSGSGTDFTLNIHPVEEEDAATYYCQHSRELPFTFGSGTKLEIK
notes: Mouse hybridoma monoclonal
- binding result [1]: binds

B2: mouse anti-human MCAM monoclonal antibody clone 1414.1.2 (antibody, V domains shown)
VH: EIQLQQTGPELVKPGASVKISCKASGYSFTDYIMLWVKQSHGKSLEWIGNINPYSGSSGYNLKFKGKATLTVDKSSSTAYMQLNSLTSEDSAVYYCARGKDFAMDYWGQGTSVTVSS
VL: DIVMSQSPSSLAVSAGEKVTMSCKSSQSLLNSSTRKNFLAWYQQKPGQSPKLLIYWASTRESGVPDRFTGSGSGTDFTLTISSVQAEDLAVYYCKQSYNRYTFGGGTKLEIK
notes: Mouse hybridoma monoclonal
- binding result [1]: binds

B3: mouse anti-human MCAM monoclonal antibody clone 1415.1.1 (antibody, V domains shown)
VH: QVQLQQPGAELVQPGAPVKLSCKASGYIFTSYWMNWVKQRPGRGLEWIGRIDPSDSKIHYNQKFKDKATLTVDRSSSTAYIQLGSLTSEDSAVYYCAKEGGLRRGDYAMDYWGQGTSVTVSS
VL: DIVMTQSPATLSVTPGDRVSLSCRASQSISDYLHWYQQKSHESPRLLIKYASQSISGIPSRFSGSGSGSDFTLSINSVEPEDVGVYYCQNGHNFPRTFGGGTKLEIK
notes: Mouse hybridoma monoclonal
- binding result [1]: binds

B4: mouse anti-human MCAM monoclonal antibody clone 1749.1.3 (antibody, V domains shown)
VH: DVKLVESGGDLVKPGGSLKLSCAASGFTFSSYIMSWVRQTPEKRLEWVATISSGGSSTYYPDSVKGRFTISRDNAKNTLYLQMSSLKSEDTAMYYCTRDDDYDVKVFAYWGQGTLVTVSA
VL: DIVMSQSPSSLAVSAGEKVTMNCKSSRSLLNSRIRKNYLAWYQQKPGQSPKLLIYWASTRESGVPDRFTGSGSGTDFTLTISSVQAEDLAVYYCKQSYNLLTFGAGTKLELK
notes: Mouse hybridoma monoclonal; also called m1749
- mean reactivity (% of wild type MCAM) [2]: 8.7 % of WT
- mean reactivity (% of wild type MCAM) [3]: 9.3 % of WT
- mean reactivity (% of wild type MCAM) [4]: 7.6 % of WT
- mean reactivity (% of wild type MCAM) [5]: 13.7 % of WT
- mean reactivity (% of wild type MCAM) [6]: 7.1 % of WT
- binding result [7]: no binding (tested: <30% WT; 0.5 µg/mL antibody)
